Results as given in US20260166140A1, “Combinations Involving Epidermal Growth Factor Receptor Tyrosine Kinase Inhibitors For the Treatment of Cancer” (AstraZeneca AB, priority 2022, published 2026).

Tested on: HCC827 cells
Assay: Internalization of AF647-labeled antibodies, live cell confocal fluorescence microscopy
Format: cell-based
Protocol: Internalization kinetics of AlexaFluor647 (AF647) primary-labeled DuetMabs: RAA22/B09 and QD6/B09 antibodies was assessed in vitro using the EGFR and c-MET expressing cell line, H1975. Each antibody was pre-bound to cells and antibody translocation from cell surface to cytoplasm was then monitored using live cell confocal fluorescence microscopy. Both antibodies localized primarily on the cell surface before (T=0) subjecting to internalization conditions and were translocated to the cytoplasm area after 1 hour (data not shown). Kinetic images were taken every 5 min over the time course of internalization and were processed using a quantitative algorithm to determine internalization kinetic constants and half-times.
Since binding of both EGFR and c-MET arms to target receptor promoted RAA22/B09 receptor internalization in H1975 cells, we examined if the increased number of EGFR and c-MET receptors would affect internalization properties. The respective receptor levels determined by Western Blot were ˜33,000 for EGFR and ˜50,000 for c-MET in H1975 cells and ˜790,000 for EGFR and ˜523,000 for c-MET in HCC827 cells.

B1: RAA22/B09-57 DuetMab (bispecific antibody, human IgG1, kappa, lambda)
heavy 1: QVQLVQSGAEVKKPGSSVKVSCKASGGTFSDNDFSWVRQAPGQGLEWMGAIVAVFRTETYAQKFQDRVKITADISTRTTYMELSSLRSEDTAVYYCARRLMSAISGPGAPLLMWGQGTLVTVSSASTKGPSVFPLAPSSKSTSGGTAALGCLVKDYFPEPVTVSWNSGALTSGVHTFPAVLQSSGLYSLSSVVTVPSSSLGTQTYICNVNHKPSNTKVDKRVEPKSCDKTHTCPPCPAPELLGGPSCVFLFPPKPKDTLMISRTPEVTCVVVDVSHEDPEVKFNWYVDGVEVHNAKTKPREEQYNSTYRVVSVLTVLHQDWLNGKEYKCKVSNKALPAPIEKTISKAKGQPREPQVCTLPPSREEMTKNQVSLSCAVKGFYPSDIAVEWESNGQPENNYKTTPPVLDSDGSFFLVSKLTVDKSRWQQGNVFSCSVMHEALHNHYTQKSLSLSPGK
heavy 2: QVQLVQSGAEVKKPGASVKVSCKASGYTFTDYYIHWVRQATGQGLEWMGWMNPNSGNTGYAQKFQGRVTMTRDTSISTAYMELSSLRSEDTAVYYCARGQGYTHSWGQGTMVTVSSASTKGPSVCPLAPSSKSTSGGTAALGCLVKDYFPEPVTVSWNSGALTSGVHTFPAVLQSSGLYSLSSVVTVPSSSLGTQTYICNVNHKPSNTKVDKRVEPKSVDKTHTCPPCPAPELLGGPSCVFLFPPKPKDTLMISRTPEVTCVVVDVSHEDPEVKFNWYVDGVEVHNAKTKPREEQYNSTYRVVSVLTVLHQDWLNGKEYKCKVSNKALPAPIEKTISKAKGQPREPQVYTLPPCREEMTKNQVSLWCLVKGFYPSDIAVEWESNGQPENNYKTTPPVLDSDGSFFLYSKLTVDKSRWQQGNVFSCSVMHEALHNHYTQKSLSLSPG
light 1: QSALTQPRSVSGSPGQSVTISCTGTSSDVGGYNYVSWYQQHPGKAPKLMIYDVSKRPSGVPDRFSGSKSGNTASLTISGLQAEDEADYYCSSYTSSDTLEIFGGGTKLTVLGQPKAAPSVTLFPPSSEELQANKATLVCLISDFYPGAVTVAWKADSSPVKAGVETTTPSKQSNNKYAASSYLSLTPEQWKSHRSYSCQVTHEGSTVEKTVAPTECS
light 2: DIQMTQSPSTLSASVGDRVTITCRASEGIYHWLAWYQQKPGKAPKLLIYKASSLASGVPSRFSGSGSGTEFTLTISSLQPDDFATYYCQQYSNYPPTFGGGTKLEIKRTVAAPSVFIFPPCDEQLKSGTASVVCLLNNFYPREAKVQWKVDNALQSGNSQESVTEQDSKDSTYSLSSTLTLSKADYEKHKVYACEVTHQGLSSPVTKSFNRGEV
notes: also called monovalent bispecific EGFR/cMET DuetMAb RAA22/B09; RAA22/B09-Maia
  internalization levels (peak cytoplasmic intensity), fold higher in HCC827 cells than H1975: 21.7 fold
HCC827 cells
  binding at T=0: 3.1×10^7 MFI
  internalization profile: markedly increased internalization in HCC827 cells
T=0
  binding to HCC827 cells, fold higher than H1975: 8.9 fold
